Results from US20190218553, “VON WILLEBRAND FACTOR (VWF)-TARGETING AGENTS AND METHODS OF USING THE SAME” (DUKE UNIVERSITY, published 2019).

Legend:
[1] = target: T1, von Willebrand factor (VWF) (Homo sapiens, UniProt P04275 P04275:764-2813); assay: filter; Bmax 52%; 2 mM CaCl2, 37 C; conditions: tags: factor VIII free, Haematologic Technologies Inc; label: 5'-32P
Protocol: (§1) Affinity constants (Kd values) were determined using double-filter nitrocellulose filter binding assays (Rusconi et al, Thromb. Haemost. $4:841-848 (2000)). All binding studies were performed in binding buffer F (20 mM HEPES, pH 7.4, 150 mM NaCl, 2 mM CaCl₂, and 0.01% BSA) at 37° C. Human purified VWF (factor VIII free) was purchased from Haematologic Technologies Inc. (Essex Junction, Vt.) and used in the double-filter nitrocellulose filter binding assay to determine the Kd of the aptamers. Briefly, RNA were end-labeled at the 5′ end with T4 polynucleotide kinase (New England Biolabs, Beverly, Mass.) and [γ³²P] ATP (Amersham Pharmacia Biotech, Piscataway, N.J.) (Fitzwater and Polisky, Methods Enzymol. 267:275-301 (1996)). End-labeled RNA was diluted in binding buffer F, heat denatured at 65° C. for 5 minutes, and subsequently equilibrated at 37° C. Direct binding was performed by incubating trace ³²P-RNA with varying concentrations of VWF protein in binding buffer F at 37° C. for 5 min. The fraction of the nucleic acid-protein complex which bound to the nitrocellulose membrane was quantified with a phosphorimager (Molecular Dynamics, Sunnyvale, Calif.). Non-specific binding of the radiolabeled nucleic acid was subtracted out of the binding such that only specific binding remained (Wong and Lohman, Proc. Natl. Acad. Sci. USA 90:5428-5432 (1993)).

[2] = target: T1, von Willebrand factor (VWF); assay: filter; Bmax 56%; 2 mM CaCl2, 37 C; conditions: tags: factor VIII free, Haematologic Technologies Inc; label: 5'-32P
Protocol: as §1

[3] = target: T1, von Willebrand factor (VWF); assay: filter; Bmax 83%; 2 mM CaCl2, 37 C; conditions: Haematologic Technologies Inc, label: 5'-32P
Protocol: as §1

[4] = target: T1, von Willebrand factor (VWF); assay: filter; Bmax 55%; 2 mM CaCl2, 37 C; conditions: tags: factor VIII free, Haematologic Technologies Inc; label: 5'-32P
Protocol: as §1

[5] = target: T1, von Willebrand factor (VWF); assay: filter; Bmax 49%; 2 mM CaCl2, 37 C; conditions: tags: factor VIII free, Haematologic Technologies Inc; label: 5'-32P
Protocol: as §1

[6] = target: T1, von Willebrand factor (VWF); assay: filter; Bmax 57%; 2 mM CaCl2, 37 C; conditions: tags: factor VIII free, Haematologic Technologies Inc; label: 5'-32P
Protocol: as §1

[7] = target: T1, von Willebrand factor (VWF); assay: filter; Bmax 73%; 2 mM CaCl2, 37 C; conditions: Haematologic Technologies Inc, label: 5'-32P
Protocol: as §1

[8] = target: T1, von Willebrand factor (VWF); assay: filter; Bmax 71%; 2 mM CaCl2, 37 C; conditions: tags: factor VIII free human purified VWF, Haematologic Technologies Inc; label: 5'-32P
Protocol: as §1

[9] = target: T1, von Willebrand factor (VWF); assay: filter; Bmax 60%; 2 mM CaCl2, 37 C; conditions: tags: factor VIII free, Haematologic Technologies Inc; label: 5'-32P
Protocol: as §1

[10] = target: T1, von Willebrand factor (VWF); assay: filter; Bmax 75%; 2 mM CaCl2, 37 C; conditions: tags: factor VIII free, Haematologic Technologies Inc; label: 5'-32P
Protocol: as §1

[11] = target: T1, von Willebrand factor (VWF); assay: filter; Bmax 66%; 2 mM CaCl2, 37 C; conditions: tags: factor VIII free, Haematologic Technologies Inc; label: 5'-32P
Protocol: as §1

[12] = target: T1, von Willebrand factor (VWF); assay: filter; Bmax 13%; 2 mM CaCl2, 37 C; conditions: tags: factor VIII free, Haematologic Technologies Inc; label: 5'-32P
Protocol: as §1

[13] = target: T1, von Willebrand factor (VWF); assay: filter; Bmax 59%; 2 mM CaCl2, 37 C; conditions: tags: factor VIII free, Haematologic Technologies Inc; label: 5'-32P
Protocol: as §1

[14] = tags: factor VIII free human purified VWF

Question: ACGAACUGCCCUGAUUAUUCACGCACAGACGU (ssRNA, 2'-F C and U; 2'-OH A and G; 3' idT) [T69] was tested. Which Kd [1] did it give?
Answer: 0.026 µM

Question: How did the Kd [2] turn out when ACGAACUGCCCUCAGACUUAUGUCUGACGCACAGACGU (ssRNA, 2'-F C and U; 2'-OH A and G; 3' idT) [T51] was run?
Answer: 0.017 µM

Question: With ACGAACUGCCCUCGAUCGACGCACAGACGU (ssRNA, mAmCmGmAmAmCmUrGfCfCfCmUmCmGmAmUmCmGmAfCrGfCmAmCmAmGmAmCmGfU-idT) [T59 vrt18] as the binder, how does the Kd ([3]; tags: factor VIII free) read?
Answer: 0.0057 µM

Question: For ACGAACUGCCCUCGCACUUUCAUGUGCGACGCACAGACGU (ssRNA, 2'-F C and U; 2'-OH A and G; 3' idT) [T38], which Kd [4] is on record?
Answer: 0.0096 µM

Question: Which Kd [5] does the source give for ACGAACUGCCCUCGAUCGACGCACAGACGU (ssRNA, rAfCrGmAmAmCfUmGfCfCfCfUmCmGmAmUmCmGrAfCmGfCmAmCmAmGmAfCrGfU-idT) [T59 vrt3] here?
Answer: 0.288 µM

Question: With ACGAACUGCCCUCGAUCGACGCACAGACGU (ssRNA, mAmCmGmAmAmCfUrGfCfCfCmUmCmGmAmUmCmGmAfCmGfCmAmCmAmGmAmCmGfU-idT) [T59 vrt16] as the binder, how does the Kd [6] read?
Answer: 0.133 µM

B1: T83 vrt1 (ssRNA)
RNA: ACGAACUGCCCUCGAUCGACGCACAGACGUAAAAA
modifications: 2'-F C2,U7,C9,C10,C11,U12,C20,C22,C28,U30; ribo A1,G3,G8,A19,G21,A23,G29; rest 2'-OMe; 3' idT
Question: With B1 as the binder, how does the Kd [7, 14] read?
Answer: 0.0021 µM

Question: For ACGAACUGCCCUCGAUCGACGCACAGACGUACACG (ssRNA, 2'-F C9,C10,C11,C20,G21,C22,U30; rest 2'-OMe; 3' idT) [T84 vrt6], which Kd [8] is on record?
Answer: 0.149 µM

Question: ACGAACUGCCCUCGAUCGACGCACAGACGUAAAAA (ssRNA, 2'-F C9,C10,C11,C20,G21,C22; rest 2'-OMe; 3' idT) [T83 vrt7] was tested. Which Kd [3, 14] did it give?
Answer: 0.265 µM

Question: With ACGAACUGCCCUCGAUCGACGCACAGACGU (ssRNA, 2'-F U7,C9,C10,C11,U12,C20,C22,U30; ribo A19,G21; rest 2'-OMe; 3' idT) [T59 vrt24] as the binder, how does the Kd [3, 14] read?
Answer: 0.0024 µM

Question: Which Kd [9] does the source give for ACGAACUGCCCUCGAUUAUUCGACGCACAGACGU (ssRNA, 2'-F C and U; 2'-OH A and G; 3' idT) [T49] here?
Answer: 0.0105 µM

Question: Which Kd [10] does the source give for ACGAACUGCCCUCGAUCGACGCACAGACGUUUUUU (ssRNA, mAmCmGmAmAmCmUmGfCfCfCmUmCmGmAmUmCmGmAfCrGfCmAmCmAmGmAmCmGmUmUmUmUmUmU-idT) [T79 vrt4] here?
Answer: 0.013 µM

Question: Which Kd ([7]; tags: factor VIII free) does the source give for ACGAACUGCCCUCGUAAGACGCACAGACGUUUUUU (ssRNA, mAmCmGmAmAmCmUmGfCfCfCmUmCmGmUmAmAmGmAfCrGfCmAmCmAmGmAmCmGfUmUmUmUmUmUidT) [DTRI-012] here?
Answer: 0.0055 µM

Question: Which Kd [9] does the source give for ACGAACUGCCCUCGUAAGACGCACAGACGUUUUUU (ssRNA, mAmCmGmAmAmCmUmGfCfCfCmUmCmGmUmAmAmGmAfCfGfCmAmCmAmGmAmCmGmUmUmUmUmUmUidT) [DTRI-034] here?
Answer: 0.0028 µM

Question: ACGAACUGCCCUCAGUACUUUCAUGUUCUGACGCACAGACGU (ssRNA, 2'-F C and U; 2'-OH A and G; 3' idT) [T35] was tested. Which Kd [11] did it give?
Answer: 0.012 µM

Question: How did the Kd [11] turn out when ACGAACUGCCCUCAGCACUUUCAUGUGCUGACGCACAGACGU (ssRNA, 2'-F C and U; 2'-OH A and G; 3' idT) [T33] was run?
Answer: 0.015 µM

Question: Which Kd [4] does the source give for CCCAAAACGAACUGCCCUCGAUCGACGCACAGACGU (ssRNA, 2'-F C and U; 2'-OH A and G; 3' idT) [T78] here?
Answer: 0.0066 µM

Question: Which Kd [12] does the source give for ACGAACUGCCCUAUUAUUACGCACAGACGU (ssRNA, 2'-F C and U; 2'-OH A and G; 3' idT) [T64] here?
Answer: 0.054 µM

Question: Which Kd [13] does the source give for AAAAACGAACUGCCCUCGAUCGACGCACAGACGU (ssRNA, 2'-F C and U; 2'-OH A and G; 3' idT) [T77] here?
Answer: 0.0088 µM

B2: T15 (ssRNA)
RNA: GGGAGGUGGACGAACUGCCCUCAGCUACCAUGUUGCUGACGCACAGACGACUCGCUG
modifications: 2'-F C and U; 2'-OH A and G
Question: B2 was tested. Which Kd [12] did it give?
Answer: 0.083 µM
